Patent US20260217813A1 (published 2026)
Numbering of substitutions follows the chain as printed.

T1: IL-12 (Human IL12 (His Tag)), Sino Biological Cat. No. CT-050-H08H-20 (human, UniProt P29460 23-328; P29459 23-219)
T1 construct: Bought His-tagged p35/p40 heterodimer
T1 sequence (looked up) 1: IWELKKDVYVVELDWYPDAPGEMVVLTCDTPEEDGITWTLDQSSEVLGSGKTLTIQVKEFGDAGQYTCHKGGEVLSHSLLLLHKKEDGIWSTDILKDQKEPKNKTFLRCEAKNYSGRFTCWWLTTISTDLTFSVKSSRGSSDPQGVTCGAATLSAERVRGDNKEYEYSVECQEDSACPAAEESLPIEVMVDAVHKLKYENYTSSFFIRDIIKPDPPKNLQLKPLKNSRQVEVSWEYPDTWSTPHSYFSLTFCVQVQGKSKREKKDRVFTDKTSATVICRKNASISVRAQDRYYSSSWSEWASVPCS
T1 sequence (looked up) 2: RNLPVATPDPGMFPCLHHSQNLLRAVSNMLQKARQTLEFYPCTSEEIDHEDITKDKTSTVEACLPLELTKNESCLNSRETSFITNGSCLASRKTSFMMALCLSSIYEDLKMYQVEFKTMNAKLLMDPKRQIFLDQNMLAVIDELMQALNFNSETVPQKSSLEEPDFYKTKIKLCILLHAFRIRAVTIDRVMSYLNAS

B1: ustekinumab (trade name Stelara) (antibody, V domains shown)
VH: EVQLVQSGAEVKKPGESLKISCKGSGYSFTTYWLGWVRQMPGKGLDWIGIMSPVDSDIRYSPSFQGQVTMSVDKSITTAYLQWNSLKASDTAMYYCARRRPGQGYFDFWGQGTLVTVSS
VL: DIQMTQSPSSLSASVGDRVTITCRASQGISSWLAWYQQKPEKAPKSLIYAASSLQSGVPSRFSGSGSGTDFTLTISSLQPEDFATYYCQQYNIYPYTFGQGTKLEIK
B2: H5L10 (antibody, human IgG1, kappa, V domains shown)
VH: EVQLVQSGAEVKKPGESLKISCQSSGYSFTTYWIGWVRQMPGQGLEWIGIMSPVDSDIRYNPMFRGQVTMSVDKSSSTAYLQWSSLKASDTAMYYCARRRPGQGYFDFWGQGTMVTVSS
VL: EIVLTQSPATLSASPGERATISCRASQSVGSWLAWYQQKPGQAPRSLIYAASNLQSGIPARFSGSGSGTDFTLTISSLEPEDFAVYYCQQYNIYPYTFGQGTRLEIKR
notes: IgG1/kappa
B3: H5L12 (antibody, human IgG1, kappa, V domains shown)
VH: B2 VH
VL: B2 VL with G30S, L54R
notes: IgG1/kappa
B4: H5L14 (antibody, human IgG1, kappa, V domains shown)
VH: B2 VH
VL: B2 VL with G30S, Y96F
notes: IgG1/kappa
B5: H5L11 (antibody, human IgG1, kappa, V domains shown)
VH: B2 VH
VL: B2 VL with G30S, A50S
notes: IgG1/kappa

target: T1, IL-12 (Human IL12 (His Tag)), Sino …; test: FACS competition, IL-12-His 20 nM on 293T-IL-12RB1&IL-23R cells
Experimental: 200 μL of 1% PBSA was added into each sample, and the mixture was centrifuged at 700×g for 5 min to discard the supernatant. According to experiment design, correspondingly diluted antibody (highest final concentration of 30 μg/mL, 3-fold dilution, 8 concentrations in total) and human IL-12 (Sino Biological, Cat. No.: CT-050-H08H-20) (final concentration of 20 nM) were mixed at a ratio of 1:1, and a blank control was set. The mixture of antibody and human IL12 was incubated on ice for 30 min and then added to the cell precipitate at 100 μL/sample. The resulting mixture was well mixed and incubated on ice for 60 min. 200 μL of 1% PBSA was added, and the mixture was centrifuged at 700×g for 5 min to discard the supernatant, and then washed twice. Alexa Fluor® 488 anti-His tag antibody (Biolegend, Cat. No.: 652509) was diluted at a ratio of 1:400 and added to each tube at 100 μL. The mixture was well mixed and incubated on ice for 40 min in the absence of light. 200 μL of 1% PBSA was added, and the mixture was centrifuged at 700×g for 5 min to discard the supernatant, and then washed twice. 1% PBSA was added at 200 μL/tube, and the cells were resuspended and transferred to a flow cytometry tube for testing.

EC50 | Binder
0.377 mg/L | B1
0.331 mg/L | B2
0.317 mg/L | B3
0.532 mg/L | B4
0.414 mg/L | B5

target: T1, IL-12 (Human IL12 (His Tag)), Sino …; test: FACS competition, IL12-His (40 nM mixed 1:1) on 293T-IL-12RB1&IL-23R cells
Experimental: 200 μL of 1% PBSA was added into each sample, and the mixture was centrifuged at 1200 rpm for 5 min to discard the supernatant. According to experiment design, correspondingly diluted antibody (highest final concentration of 60 μg/mL, 3-fold dilution, 8 concentrations in total) and IL12-His (Sino Biological, Cat. No.: CT-050-H08H-20) (40 nM) were mixed at a ratio of 1:1, and a blank control was set. The mixture of antibody and IL12 was incubated on ice for 30 min and then added to the cell precipitate at 100 μL/sample. The resulting mixture was well mixed and incubated on ice for 60 min. 200 μL of 1% PBSA was added, and the mixture was centrifuged at 1200 rpm for 5 min to discard the supernatant, and then washed twice. THETM His tag antibody (FITC) (Genscript, Cat. No.: A01620) was diluted at a ratio of 1:500 and added to each tube at 100 μL. The mixture was well mixed and incubated on ice for 40 min in the absence of light. 200 μL of 1% PBSA was added, and the mixture was centrifuged at 1200 rpm for 5 min to discard the supernatant, and then washed twice. 1% PBSA was added at 200 μL/tube, and the cells were resuspended and transferred to a flow cytometry tube for testing.

EC50 | Binder
1.58 mg/L | B1
